Values quoted from earlier work as cited in publication PMC4788383.
Read-outs that look alike come from different tables or passages of the source.

Columns and labels:
[1] = target: RNA polymerase II CTD peptide CTD (Homo sapiens) (UniProt P24928)
[2] = target: RNA polymerase II CTD peptide CTD (Homo sapiens) (UniProt P24928); remark: listed apart in the source

Kd [1]: 30 µM
Kd [2]: 61 µM
Substance: Pin1 (from UniProt Q13526)
